# Molecular target: the molecule itself
# Assay: raster image correlation spectroscopy (RICS), molecular brightness; living U3A cells after IFNγ (1 U/μl, 1 h), 37°C; nucleus; brightness as fold of cytoplasmic STAT1 WT; dimers to tetramers
protein,measurement,value
"STAT1-GFP T419R (natural protein, UniProt P42224 1-750, looked up, Mutation reported in patients; also called STAT1T419R-eGFP; source: measured in living cells; not shown: eGFP, C-terminal, kept) MSQWYELQQLDSKFLEQVHQLYDDSFPMEIRQYLAQWLEKQDWEHAANDVSFATIRFHDLLSQLDDQYSRFSLENNFLLQHNIRKSKRNLQDNFQEDPIQMSMIIYSCLKEERKILENAQRFNQAQSGNIQSTVMLDKQKELDSKVRNVKDKVMCIEHEIKSLEDLQDEYDFKCKTLQNREHETNGVAKSDQKQEQLLLKKMYLMLDNKRKEVVHKIIELLNVTELTQNALINDELVEWKRRQQSACIGGPPNACLDQLQNWFTIVAESLQQVRQQLKKLEELEQKYTYEHDPITKNKQVLWDRTFSLFQQLIQSSFVVERQPCMPTHPQRPLVLKTGVQFTVKLRLLVKLQELNYNLKVKVLFDKDVNERNTVKGFRKFNILGTHTKVMNMEESTNGSLAAEFRHLQLKEQKNAGTRRNEGPLIVTEELHSLSFETQLCQPGLVIDLETTSLPVVVISNVSQLPSGWASILWYNMLVAEPRNLSFFLTPPCARWAQLSEVLSWQFSSVTKRGLNVDQLNMLGEKLLGPNASPDGLIPWTRFCKENINDKNFPFWLWIESILELIKKHLLPLWNDGCIMGFISKERERALLKDQQPGTFLLRFSESSREGAITFTWVERSQNGGEPDFHAVEPYTKKELSAVTFPDIIRNYKVMAAENIPENPLKYLYPNIDKDHAFGKYYSRPKEAPEPMELDGPKGTGYIKTELISVSEVHPSRLQTTDNLLPMSPEEFDEVSRIVGSVEFDSMMNTV",stoichiometry N,2
